The target of assay [1] is T1, human insulin receptor (HIR) (human, UniProt P06213 28-1382, limits assumed). The assay is described as follows: competition with 125I-insulin, solubilised HIR.
The target in assay [2] is T2, Soluble IGF-1R (R&D Systems, Cat. # 391-GR/CF) (UniProt P08069 31-935, limits assumed).
T2 construct: extracellular domain; also called sIGF-1R; IGFR
Kind of assay: phage ELISA: IGF-1R ratio over background divided by IR ratio over background.

Assay [3] concerns the target T3, Insulin receptor prepared according to Bass et al., 1996 (human, UniProt P06213 28-956, limits assumed).
T3 construct: extracellular domain; also called IR; soluble IR (Bass construct); not shown: immunoglobulin constant domains (Fc or lambda) of the Bass construct
The assay is described as follows: phage ELISA: IR ratio over background divided by IGF-1R ratio over background. A general note: An ELISA detects its analyte on a solid surface through an enzyme-linked reagent.

The target of assay [4] is T2, Soluble IGF-1R (R&D Systems, Cat. # …).
Assay [5] concerns the target T3, Insulin receptor prepared according to ….
In assay [6] the target is T4, human insulin receptor (HIR) (human, UniProt P06213 28-1382, limits assumed).
T4 construct: solubilised receptor
The assay is described as follows: 125I-insulin displacement, purified HIR.

For assay [7], the target named is T5, soluble HIR ectodomain (sIR) (human, UniProt P06213 28-956, limits assumed).
T5 construct: extracellular domain
The assay is described as follows: FP on sIR, competitor FITC-RP9. From the text:
Fluorescence polarization assays (FP) were used for peptide competition studies.

Assay [8] concerns the target T6, soluble human insulin receptor-immunoglobulin heavy chain chimera (sIR-Fc) (human, UniProt P06213 28-956, limits assumed, Eu3+ (LANCE) label in the TR-FRET assays).
T6 construct: extracellular domain; Construct of Bass et al., 1996; also called HIR-immunoglobulin heavy chain chimera; not shown: immunoglobulin heavy chain constant domains
Kind of assay: TR-FRET on Eu-sIR-Fc, competitor b-S175. The protocol:
(§1) The TR-FRET assays were performed in a 384-well white microplate with a final volume of 30 μl.

Assay [9] deals with T6, soluble human insulin …. Kind of assay: FP on sIR-Fc, competitor FITC-RP9.
Assay [10] deals with T6, soluble human insulin …. Kind of assay: TR-FRET on Eu-sIR-Fc, competitor b-RP9. The protocol: Time-resolved fluorescence resonance energy transfer assays (TR-FRET) were used for peptide competition studies.
as §1
A general note: In TR-FRET formats the signal depends on donor and acceptor labels being close together.

The target in assay [11] is T1, human insulin receptor (HIR). Kind of assay: radio-receptor assay on HIR, competitor 125I-insulin.
The target of assay [12] is T7, recombinant human IGF-1R (rhIGF-1R) (human, UniProt P08069 31-935).
T7 construct: extracellular domain; Coated on plates in the DELFIA assay and Eu3+ (LANCE) labeled in the TR-FRET assays
Kind of assay: TR-FRET; competitor against 15 nM b-20E2 on Eu-labeled rhIGF-1R.

The target of assay [13] is T8, soluble human insulin receptor-immunoglobulin heavy chain chimera (sIR-Fc) (human, UniProt P06213 28-956, limits assumed).
T8 construct: extracellular domain; Construct of Bass et al., 1996; not shown: immunoglobulin heavy chain constant domains
Kind of assay: fluorescence polarization; competitor against 1 nM FITC-RP9 on sIR-Fc.

The term Kd denotes the free concentration of one partner at which half of the binding sites on the other are occupied at equilibrium, for simple one-to-one binding. Molecule SLEEEWAQIQHELYGPAESESFYDWFERQL [S596] had a Kd in assay [1] of 0.045 nM.

In turn, SLEEEWAQVECEVYGRGCPSESFYDWFVRQLG [S555] yielded a Kd in assay [1] of 0.057 nM.

In turn, LDQEWAWVQSEVYGRGSPSESFYDWFERQL [S509] displayed a Kd in assay [1] of 5.7 nM.

SIEEEWAQIKCDVWGRGCPSESFYDWFERQL [S517]: the Kd in assay [1] was 0.006 nM.

As to SIEEEWAQIKCDVWGRGCPSY [S593], the Kd in assay [1] amounted to 2.2 nM.

B1: 40F-4-B1-IGFR (peptide)
peptide: DYKDGLDHSDAVGVHLGFAWPAQARGRWEAGGLEDTWAGYDWLAAAGAP
notes: not shown: rest of the phage display fusion (remainder of E-Tag, phage coat protein)
For the molecule B1, in assay [2], the “Comparison IGF-1R/IR” value came to 13.1 ratio. Also, the “Comparison IR/IGF-1R” value in assay [3] worked out at 0.1 ratio. Further, in assay [4], the “Ratio over Background, IGF-1R” value worked out at 3 ratio over background. In [5], the “Ratio over Background, IR” value was determined as 0.2 ratio over background.

For HHHHHHKLDQEWAWVQCEVYGRGCPSESFYDWFERQLG [S481], in assay [1], the affinity, expressed as Kd, was 1.3 nM.

B2: S300 (peptide)
peptide 1: DWLQRNANFYDWFVAELX
peptide 2: DWLQRNANFYDWFVAELX
modifications: C-terminal Lig′ joined to linker 14
notes: dimer, C-C
Consider B2, for which the Kd in assay [6] turned out to be 50 nM.

TFYSCLASLLTGTPQPNRGPWERCRKK [S327]: in [6], binding was put at a Kd of 2700 nM.

B3: S550 (peptide)
peptide: GSLDESFYDWFERQLGXK
modifications: as printed: Ac-GSLDESFYDWFERQLG-POX-K; N-terminal acetyl; POX between G and the C-terminal K
notes: POX is not explained
B3 yielded a Kd in assay [1] of 40 nM.

B4: S380 (peptide)
peptide 1: EEDWLQRNANFYDWFVAELX
peptide 2: EEDWLQRNANFYDWFVAELX
modifications: C-terminal Lig′ joined to chemical linker 9
notes: C-C dimer through chemical linker 9; also called (EE-short-S175-Lig)2-9
The IC50 is the concentration at which inhibition is half-maximal. Take B4: the values for the IC50 in [7] and in assay [8] were 0.5 nM and 10 nM, respectively.

Turning to SLEEEWAQVECEVYGRGCPSGSLDESFYHWFERQLG [S542], the Kd in assay [1] was 0.027 nM.

B5: S414 (peptide)
peptide 1: ESFYDWFERQLGKX
peptide 2: ESFYDWFERQLGKX
modifications: C-terminal Lig′ joined to chemical linker 14
notes: Lig′ = lysine with a 2-aminohydroxyacetyl group on the side chain amino group; also called (truncated(-GSLD)RP9(-KK))2-14
In assay [7], B5 returned an IC50 of 0.2 nM.

With SLEEEWAQIECEVWGRGCPSGSLDESFYDWFERQL [S560], the Kd in assay [1] was found to be 0.014 nM.

On to FHENFYDWFVRQVSKK (also called D117) [H2C], for which the IC50 in assay [7] worked out at 37 nM; in assay [9], 50 nM; in assay [10] it was 1630 nM; in assay [8] it was 410 nM; in assay [11] it was 700 nM.

With FHENFYDWFVRQVSKK [H2C (D117)], the IC50 in [12] turned out to be 460 nM; in assay [13], 66 nM.

B6: S229 (peptide)
peptide 1: SDGFYNAIELLSX
peptide 2: KHLCVLEELFWGASLFGYCSGKKX
modifications: C-terminal Lig joined to linker 12
notes: heterodimer F2-F4, C-C
With B6, the Kd in assay [6] came to 4.4 nM.

SLEEEWAQIECEVWGRGCSGSLDESFYDWFERQL [S561] yielded a Kd in [1] of 0.018 nM.

Molecule LEEEWAQIQREVWHSPASESFYDWFERQL [S595] returned a Kd in assay [1] of 0.62 nM.

B7: S337 (peptide)
peptide 1: GSLDESFYDWFERQLGKKX
peptide 2: GSLDESFYDWFERQLGKKX
modifications: C-terminal Lig′ joined to chemical linker 23
notes: C-C dimer through chemical linker 23; also called (RP9-Lig)2-23
With B7, the IC50 in assay [7] worked out at 0.2 nM; in assay [9] it was 1 nM; in assay [8], 0.2 nM.

The values are drawn from patent US20070265189A1 (published 2007).
